Numbered stars: 1 amine (or outer) side, 2 acyl side, 3 side chain; on linkers, the order of the positions; unused ones are H or OH. Ends that are not written are not given here. Suc = O=C(CCC(=O)[*:2])[*:1]
Target: T1, rat ETB receptor (Rattus norvegicus, UniProt P21451)
T1 construct: expressed in transfected cells
T1 sequence (P21451 27-442): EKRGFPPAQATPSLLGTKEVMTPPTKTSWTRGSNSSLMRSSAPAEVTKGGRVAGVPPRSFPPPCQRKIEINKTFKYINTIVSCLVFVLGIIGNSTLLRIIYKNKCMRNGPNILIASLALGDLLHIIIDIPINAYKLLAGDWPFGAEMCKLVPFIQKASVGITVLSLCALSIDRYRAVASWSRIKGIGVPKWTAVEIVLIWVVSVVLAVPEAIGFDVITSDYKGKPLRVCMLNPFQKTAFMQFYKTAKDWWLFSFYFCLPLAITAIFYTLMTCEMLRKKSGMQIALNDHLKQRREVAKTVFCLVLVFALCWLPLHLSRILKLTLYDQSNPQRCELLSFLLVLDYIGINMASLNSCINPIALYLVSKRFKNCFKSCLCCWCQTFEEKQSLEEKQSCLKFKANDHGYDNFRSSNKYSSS
Experiment: Determination of EC50s of polypeptides against rat ETB receptor
Assay type: cell-based
Conditions: Table 8, rat ETB receptor
Description: 293T-17 cells were seeded at a density of 650,000 cells per well in a 6-well plate and cultured overnight in an incubator at 37°C and 5% CO2. Afterward, the cells were transfected with an expression vector, PCDNA3.1-hETB which contained a human ETB receptor gene, at a plasmid concentration of 2.5 µg per well. The cells were further cultured for 48 hours, and green fluorescence expression was observed under a fluorescence microscope. The cells were then digested with trypsin and counted. The activity of compounds on the human ETB receptor was determined with the IP-One Gq kit from Cisbio Bioassays. The cells were suspended in Stim Buffer provided in the kit and the cell suspension was added to a 96-well detection plate at 7 µL cell suspension (containing 30,000 cells) per well. The polypeptides to be tested (prepared according to the Preparation Example of the invention) were diluted in Stim B to obtain a gradient of 11 concentration points. For each concentration point, the polypeptides to be tested were dissolved in Stim B to be at a concentration of 2×, and added at 7 µL to the test cells, while 7 µL of PBS solution was added to the cells in the negative control wells. The plate was sealed and incubated at 37°C for 1 hour in a cell culture incubator. Detection wells, positive control wells containing human endothelin ET1 (ET1: […] (C1-C15,C3-C11)), and PBS control wells were each added with 3 µL of IP1 d2 working solution and 3 µL of IP1 Tb cryptotate Antibody working solution. The plate was then sealed and incubated in the dark at room temperature (25°C±5°C) for 1 hour. The plate seal was removed, and the […] at 665 nm and 620 nm was measured with an ID5 microplate reader. The ratio of the acceptor emission signal to the donor emission signal, i.e., (signal at 665 nm/signal at 620 nm)×10^4, was calculated for each well. With F representing the average value of values of signal at 665 nm/signal at 620 nm for the test samples at various concentrations, a scatterplot was plotted, where the abscissa represented the F value, and the ordinate represented the logarithmic value of the peptide concentration. A curve was fitted with an appropriate method to calculate EC50 values of the polypeptides against the human ETB receptor. Another method was provided for fitting a curve where activation rate of the test polypeptides at each concentration relative to the positive control sample human endothelin ET1 was calculated first with the method in Example 1, and a scatterplot was plotted, where the abscissa represented the activation rate, and the ordinate represented the logarithmic value of the polypeptide concentration. A curve was fitted with an appropriate method to calculate the EC50 values of the polypeptides against the human ETB receptor.
The process is the same as that in Example 3, except that the transfected plasmid was expression vector PCDNA3.1-RETB which contained a rat ETB receptor gene. EC50 values of the polypeptides against the rat ETB receptor were calculated (see Figures 11-13). The sequence of the rat ETB receptor (NCBI accession number: X57764.1).

Suc-DE cyclo(CEEC)YFAHKDIIW (Suc-DECEECYFAHKDIIW; not fully specified (bridges); printed as Suc-DE cyclo(CEEC)YFAHKDIIW; also: cyclo(CEEC) in N-terminal extension, bond type not given here) [BX-57]
DETAR Agonist Activity, % (@10nM): 67.42%
DETAR Agonist Activity, % (@100nM): 218.34%
